# Laboratory results as given in US20260207700A1, “MEDICAL PRODUCTS CONTAINING AN AQUEOUS FORMULATION OF A PEPTIDE” (LYTIX BIOPHARMA AS, priority 2022, published 2026).
# Non-standard residues stand in square brackets, D forms with d. No end group written: not given here. Dip = N[C@H](C(=O)O)C(c1ccccc1)c1ccccc1
# What was measured:
# [1] = Osmolality of LTX-315 drug product on storage (Ph. Eur. 2.2.35), Example 1.1; format: physicochemical; settings: 20 mg/mL in WFI
# Method: (§1) • LTX-315=acetate salt of peptide with sequence K-K-W-W-K-K-W-Dip-K-NH2 20 mg/mL LTX-315 drug product was prepared by dissolving LTX-315 powder in WFI and filtered through a 0.22 μm sterile filter. 1 ml of the drug product was then filled into vials and sealed. The WFI complied to the Ph. Eur monograph 0169 for WFI. All product contact vials, glassware and peripherals were sterilised by depyrogenation in a hot air oven at 250° C. for 120 minutes after twice rinsing with WFI. Product contact tubing, stoppers and over-seals were twice rinsed with WFI then sterilised by autoclaving for >15 minutes at 121° C. then dried overnight in a drying oven. The vials were stored as set out in Table 1 below and analysed according to the listed parameters. Appearance was tested visually according to Ph.Eur 2.9.20 and osmolality according to Ph. Eur. 2.2.35. pH was tested according to Ph. Eur. 2.2.3. Colour and clarity were tested according to Ph. Eur 2.2.2 and Ph. Eur 2.2.1, respectively.
# [2] = pH of LTX-315 drug product on storage (Ph. Eur. 2.2.3), Example 1.1; format: physicochemical; settings: 20 mg/mL in WFI
# Method: as §1
# [3] = Purity/related substances after storage, HPLC, Example 1.3; format: physicochemical; settings: 20 mg/mL in WFI
# Method: (§2) Reversed phase HPLC, using a trifluoracetic acid (TFA) system and UV detection at 220 nm, was used to determine the amount of LTX-315 after storage of the vials in accordance with the storage conditions set out in Table 2.
# (§3) The column used was an RP C18, e.g. Waters Sunfire, 3.5 μm, 4.6×150 mm. The LTX-315 concentration in the test sample solution was 0.5 mg/ml and the injection volume 10 μl. The gradient profile used is set out below and the flow rate was 1.2 mL/min.
# (§4) Drug product was prepared and stored as described in Example 1.1.
# HPLC analysis was performed as described in Example 1.2 to determine the concentration of LTX-315 and the amount of related substances, i.e. substances formed due to and thus related to the degradation of LTX-315 in the drug product.
# [4] = Appearance of LTX-315 drug product in sealed vials on storage (visual, Ph.Eur 2.9.20), Example 1.1; format: physicochemical
# Method: as §1
# [5] = LTX-315 concentration after storage, reversed phase HPLC UV 220 nm, Example 1.2; format: physicochemical; settings: for LTX-315 concentration, Vial 1 / LTX-315 concentration, Vial 2 / Mean content / Rec./T = 0 / Rec./theory (percentage of theoretical 20 mg/mL): 20 mg/mL in WFI
# Method: as §4, §2, §3
# [6] = 20-30° C., protected from light; cited from earlier work
molecule,measurement,setting,value
K-K-W-W-K-K-W-Dip-K-NH2 (KKWWKKW[Dip]K-NH2) [LTX-315],Osmolality,"[1]; 2-8° C., T = 6 months",133 mOsmkg^−1
same,Osmolality,"[1]; 2-8° C., T = 12 months",133 mOsmkg^−1
same,Osmolality,"[1]; 2-8° C., T = 24 months",132 mOsmkg^−1
same,Osmolality,"[1]; 25° C./60% RH, T = 6 months",133 mOsmkg^−1
same,Osmolality,[1]; Initial (T = 0),132 mOsmkg^−1
same,pH,"[2]; 2-8° C., T = 3 months",6.2
same,pH,"[2]; 2-8° C., T = 6 months",6.0
same,pH,"[2]; 2-8° C., T = 12 months",6.1
same,pH,"[2]; 2-8° C., T = 24 months",6.1
same,pH,"[2]; 25° C./60% RH, T = 3 months",6.2
same,pH,"[2]; 25° C./60% RH, T = 6 months",6.1
same,pH,[2]; Initial (T = 0),6.1
same,Total related substances (sum of related substances >0.05%),"[3]; 2-8° C., 1 M",1.31 area %
same,Total related substances (sum of related substances >0.05%),"[3]; 2-8° C., 3 M",1.32 area %
same,Total related substances (sum of related substances >0.05%),"[3]; 2-8° C., 6 M",0.98 area %
same,Total related substances (sum of related substances >0.05%),"[3]; 2-8° C., 9 M",1.54 area %
same,Total related substances (sum of related substances >0.05%),"[3]; 2-8° C., 12 M",1.34 area %
same,Total related substances (sum of related substances >0.05%),"[3]; 2-8° C., 18 M",1.37 area %
same,Total related substances (sum of related substances >0.05%),"[3]; 2-8° C., 24 M",1.64 area %
same,Total related substances (sum of related substances >0.05%),"[3]; 2-8° C., Initial (T = 0)",0.88 area %
same,Total related substances (sum of related substances >0.05%),"[3]; 25° C./60% RH, 1 M",1.55 area %
same,Total related substances (sum of related substances >0.05%),"[3]; 25° C./60% RH, 3 M",1.97 area %
same,Total related substances (sum of related substances >0.05%),"[3]; 25° C./60% RH, 6 M",2.31 area %
same,Total related substances (sum of related substances >0.05%),"[3]; 25° C./60% RH, Initial (T = 0)",0.88 area %
same,"Change in appearance, osmolality, pH, colour and clarity",[4]; 6 months at 25° C. with 60% RH in the dark,no change
same,"Change in appearance, osmolality, pH, colour and clarity",[4]; 24 months in the dark at 2-8° C.,no change
same,"LTX-315 concentration, Vial 1","[5]; 2-8° C., T = 1 month",20.548 mg/mL
same,"LTX-315 concentration, Vial 2","[5]; 2-8° C., T = 1 month",19.916 mg/mL
same,Mean content,"[5]; 2-8° C., T = 1 month",20.2 mg/mL
same,Rec./T = 0,"[5]; 2-8° C., T = 1 month",96.3%
same,Rec./theory (percentage of theoretical 20 mg/mL),"[5]; 2-8° C., T = 1 month",101.2%
same,"LTX-315 concentration, Vial 1","[5]; 2-8° C., T = 3 months",21.241 mg/mL
same,"LTX-315 concentration, Vial 2","[5]; 2-8° C., T = 3 months",21.276 mg/mL
same,Mean content,"[5]; 2-8° C., T = 3 months",21.2 mg/mL
same,Rec./T = 0,"[5]; 2-8° C., T = 3 months",101.1%
same,Rec./theory (percentage of theoretical 20 mg/mL),"[5]; 2-8° C., T = 3 months",106.3%
same,"LTX-315 concentration, Vial 1","[5]; 2-8° C., T = 6 months",20.979 mg/mL
same,"LTX-315 concentration, Vial 2","[5]; 2-8° C., T = 6 months",21.027 mg/mL
same,Mean content,"[5]; 2-8° C., T = 6 months",21.0 mg/mL
same,Rec./T = 0,"[5]; 2-8° C., T = 6 months",99.9%
same,Rec./theory (percentage of theoretical 20 mg/mL),"[5]; 2-8° C., T = 6 months",105.0%
same,"LTX-315 concentration, Vial 1","[5]; 2-8° C., T = 9 months",20.311 mg/mL
same,"LTX-315 concentration, Vial 2","[5]; 2-8° C., T = 9 months",20.631 mg/mL
same,Mean content,"[5]; 2-8° C., T = 9 months",20.4 mg/mL
same,Rec./T = 0,"[5]; 2-8° C., T = 9 months",97.4%
same,Rec./theory (percentage of theoretical 20 mg/mL),"[5]; 2-8° C., T = 9 months",102.4%
same,"LTX-315 concentration, Vial 1","[5]; 2-8° C., T = 12 months",20.895 mg/mL
same,"LTX-315 concentration, Vial 2","[5]; 2-8° C., T = 12 months",20.631 mg/mL
same,Mean content,"[5]; 2-8° C., T = 12 months",20.7 mg/mL
same,Rec./T = 0,"[5]; 2-8° C., T = 12 months",98.8%
same,Rec./theory (percentage of theoretical 20 mg/mL),"[5]; 2-8° C., T = 12 months",103.8%
same,"LTX-315 concentration, Vial 1","[5]; 2-8° C., T = 18 months",19.204 mg/mL
same,"LTX-315 concentration, Vial 2","[5]; 2-8° C., T = 18 months",19.990 mg/mL
same,Mean content,"[5]; 2-8° C., T = 18 months",19.6 mg/mL
same,Rec./T = 0,"[5]; 2-8° C., T = 18 months",93.2%
same,Rec./theory (percentage of theoretical 20 mg/mL),"[5]; 2-8° C., T = 18 months",98.0%
same,"LTX-315 concentration, Vial 1","[5]; 2-8° C., T = 24 months",20.150 mg/mL
same,"LTX-315 concentration, Vial 2","[5]; 2-8° C., T = 24 months",19.669 mg/mL
same,Mean content,"[5]; 2-8° C., T = 24 months",19.9 mg/mL
same,Rec./T = 0,"[5]; 2-8° C., T = 24 months",94.7%
same,Rec./theory (percentage of theoretical 20 mg/mL),"[5]; 2-8° C., T = 24 months",99.5%
same,"LTX-315 concentration, Vial 1","[5]; 25° C./60% RH, T = 1 month",20.269 mg/mL
same,"LTX-315 concentration, Vial 2","[5]; 25° C./60% RH, T = 1 month",20.194 mg/mL
same,Mean content,"[5]; 25° C./60% RH, T = 1 month",20.2 mg/mL
same,Rec./T = 0,"[5]; 25° C./60% RH, T = 1 month",96.2%
same,Rec./theory (percentage of theoretical 20 mg/mL),"[5]; 25° C./60% RH, T = 1 month",101.2%
same,"LTX-315 concentration, Vial 1","[5]; 25° C./60% RH, T = 3 months",20.897 mg/mL
same,"LTX-315 concentration, Vial 2","[5]; 25° C./60% RH, T = 3 months",20.222 mg/mL
same,Mean content,"[5]; 25° C./60% RH, T = 3 months",20.5 mg/mL
same,Rec./T = 0,"[5]; 25° C./60% RH, T = 3 months",97.8%
same,Rec./theory (percentage of theoretical 20 mg/mL),"[5]; 25° C./60% RH, T = 3 months",102.8%
same,"LTX-315 concentration, Vial 1","[5]; 25° C./60% RH, T = 6 months",20.575 mg/mL
same,"LTX-315 concentration, Vial 2","[5]; 25° C./60% RH, T = 6 months",20.215 mg/mL
same,Mean content,"[5]; 25° C./60% RH, T = 6 months",20.3 mg/mL
same,Rec./T = 0,"[5]; 25° C./60% RH, T = 6 months",97.0%
same,Rec./theory (percentage of theoretical 20 mg/mL),"[5]; 25° C./60% RH, T = 6 months",102.0%
same,"LTX-315 concentration, Vial 1",[5]; Initial (T = 0),21.068 mg/mL
same,"LTX-315 concentration, Vial 2",[5]; Initial (T = 0),20.978 mg/mL
same,Mean content,[5]; Initial (T = 0),21.0 mg/mL
same,Rec./theory (percentage of theoretical 20 mg/mL),[5]; Initial (T = 0),105.1%
same,Change in LTX-315 concentration,"[5]; 2-8° C., 24 months",very slight decrease
same,Concentration of LTX-315 versus T=0,"[5]; 25° C. with 60% relative humidity, six months",the same as the concentration at T=0
C[C@@H](O)[C@@H]1NC(=O)[C@H](CCCCN)NC(=O)[C@@H](Cc2c[nH]c3ccccc23)NC(=O)[C@H](Cc2ccccc2)NC(=O)[C@@H](NC(=O)[C@H](N)Cc2ccccc2)CSSC[C@@H](C(=O)N[C@H](CO)[C@@H](C)O)NC1=O [octreotide],Permitted storage time of liquid product,[6],up to 14 days
